Among the data in publication PMC8576529, “Handling Several Sugars at a Time: a Case Study of Xyloglucan Utilization by Ruminiclostridium cellulolyticum” (mBio, 2021) are Ki, Km and kcat values, retold here.

Like-named read-outs stand apart in the source and are kept apart here.

Data set [1] concerns the target T1, Cellobiose phosphorylase CbpA (Ruminiclostridium cellulolyticum, UniProt B8I421).
T1 construct: gene Ccel_2109; C-terminal 6xHis tag, produced in E. coli, purified to homogeneity
T1 sequence (B8I421 1-811): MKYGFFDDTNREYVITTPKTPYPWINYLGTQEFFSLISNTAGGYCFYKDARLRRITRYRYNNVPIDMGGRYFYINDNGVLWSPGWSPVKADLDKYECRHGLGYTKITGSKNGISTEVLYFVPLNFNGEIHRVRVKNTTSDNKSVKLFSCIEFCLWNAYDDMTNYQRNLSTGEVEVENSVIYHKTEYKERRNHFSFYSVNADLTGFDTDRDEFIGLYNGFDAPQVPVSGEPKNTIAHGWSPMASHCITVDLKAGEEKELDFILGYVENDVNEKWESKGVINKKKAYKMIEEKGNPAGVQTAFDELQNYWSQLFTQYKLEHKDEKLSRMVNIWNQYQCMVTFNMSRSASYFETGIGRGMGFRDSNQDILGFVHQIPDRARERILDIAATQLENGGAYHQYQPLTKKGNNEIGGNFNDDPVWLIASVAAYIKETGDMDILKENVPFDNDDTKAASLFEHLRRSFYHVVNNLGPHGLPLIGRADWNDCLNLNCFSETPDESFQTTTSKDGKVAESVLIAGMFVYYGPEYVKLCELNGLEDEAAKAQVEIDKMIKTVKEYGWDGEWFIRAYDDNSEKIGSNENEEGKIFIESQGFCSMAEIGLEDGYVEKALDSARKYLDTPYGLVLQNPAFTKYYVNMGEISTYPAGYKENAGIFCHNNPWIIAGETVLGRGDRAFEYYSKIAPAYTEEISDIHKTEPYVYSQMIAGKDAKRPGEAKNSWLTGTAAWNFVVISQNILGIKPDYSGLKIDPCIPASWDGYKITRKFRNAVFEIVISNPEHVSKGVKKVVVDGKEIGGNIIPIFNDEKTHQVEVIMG
In words: cellobiose phosphorolysis, HPAEC-PAD. The class given is biochemical. As to conditions: competitive; cellobiose 0.05 to 10 mM varied, 50 mM phosphate, pH 7.0, 37°C; read-out: Inhibitor. The text has this: cellobiose phosphorolysis, HPAEC-PAD on Cellobiose phosphorylase CbpA

The next data set concerns the target T2, β-Glucosidase Glu3A.
T2 construct: cytosolic enzyme, purified as formerly reported
In words: pNPβGlu hydrolysis, A400. The class given is biochemical, Ruminiclostridium cellulolyticum. The following applies: competitive; substrate p-nitrophenyl-β-D-glucoside, 50 mM phosphate pH 7.0, 37°C; read-out: Mean enzyme concn (mM) ± SD^a / β-Glucosidase (Glu3A). An excerpt: pNPβGlu hydrolysis, A400 on β-Glucosidase Glu3A

For a further data set, the target named is T3, α-Xylosidase Xyl31A (Ruminiclostridium cellulolyticum, UniProt B8I9A6).
T3 construct: gene Ccel_1004; cytosolic enzyme, purified as formerly reported
T3 sequence (B8I9A6 entry or part of it): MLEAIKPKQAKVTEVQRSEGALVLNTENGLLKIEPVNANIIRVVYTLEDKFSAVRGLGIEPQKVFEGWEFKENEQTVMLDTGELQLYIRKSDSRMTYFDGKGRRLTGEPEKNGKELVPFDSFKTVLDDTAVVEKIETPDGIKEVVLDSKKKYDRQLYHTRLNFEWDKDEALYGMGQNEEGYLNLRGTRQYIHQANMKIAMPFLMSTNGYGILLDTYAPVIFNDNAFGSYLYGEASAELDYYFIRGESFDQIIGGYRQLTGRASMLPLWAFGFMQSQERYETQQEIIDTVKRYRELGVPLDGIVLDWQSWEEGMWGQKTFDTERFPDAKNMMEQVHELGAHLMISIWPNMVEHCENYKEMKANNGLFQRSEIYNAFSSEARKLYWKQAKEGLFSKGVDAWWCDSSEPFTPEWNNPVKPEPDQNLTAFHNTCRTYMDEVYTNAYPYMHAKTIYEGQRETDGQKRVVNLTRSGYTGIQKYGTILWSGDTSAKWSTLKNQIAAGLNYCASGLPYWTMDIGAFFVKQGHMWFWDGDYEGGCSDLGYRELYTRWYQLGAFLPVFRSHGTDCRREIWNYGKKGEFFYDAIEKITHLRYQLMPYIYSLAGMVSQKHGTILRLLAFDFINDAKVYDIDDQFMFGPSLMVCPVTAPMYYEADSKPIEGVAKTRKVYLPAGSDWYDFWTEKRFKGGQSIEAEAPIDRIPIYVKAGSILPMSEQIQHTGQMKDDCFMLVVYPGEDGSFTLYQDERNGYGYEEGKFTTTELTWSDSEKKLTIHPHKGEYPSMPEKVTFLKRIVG
In words: isoprimeverose hydrolysis, HPAEC-PAD. As to conditions: competitive; substrate isoprimeverose 0.5 to 8 mM, 50 mM phosphate pH 6.0, 37°C; read-out: Mean enzyme concn (mM) ± SD^a / α-Xylosidase (Xyl31A). The class given is biochemical. The text has this: isoprimeverose hydrolysis, HPAEC-PAD on α-Xylosidase Xyl31A

In another data set the target is T4, β-Galactosidase Gal42A.
T4 construct: cytosolic enzyme, purified as formerly reported
In words: pNPβGal hydrolysis, A400. The class given is biochemical, Ruminiclostridium cellulolyticum. The following applies: substrate p-nitrophenyl-β-D-galactoside, 50 mM phosphate pH 7.0, 37°C, read-out: Mean enzyme concn (mM) ± SD^a / β-Galactosidase Gal42A. An excerpt:
pNPβGal hydrolysis, A400 on β-Galactosidase Gal42A

A further data set deals with T5, Galactokinase (Ruminiclostridium cellulolyticum, UniProt B8I0X2).
T5 construct: gene galK; C-terminal 6xHis tag (pET28a-3238), E. coli BL21(DE3)
T5 sequence (B8I0X2 1-397): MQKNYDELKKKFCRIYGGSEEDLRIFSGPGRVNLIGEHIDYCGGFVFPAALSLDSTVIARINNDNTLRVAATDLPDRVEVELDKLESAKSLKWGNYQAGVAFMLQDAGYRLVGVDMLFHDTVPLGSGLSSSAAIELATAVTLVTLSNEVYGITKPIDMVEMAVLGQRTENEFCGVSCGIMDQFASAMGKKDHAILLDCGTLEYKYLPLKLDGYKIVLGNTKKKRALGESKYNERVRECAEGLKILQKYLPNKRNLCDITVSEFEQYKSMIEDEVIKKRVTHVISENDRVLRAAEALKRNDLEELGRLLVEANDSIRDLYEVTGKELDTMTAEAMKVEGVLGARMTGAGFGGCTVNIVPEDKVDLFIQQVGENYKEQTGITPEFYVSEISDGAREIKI
In words: galactose phosphorylation, HPLC-RI. The class given is biochemical. As to conditions: 5 mM GTP, 25 mM MgCl2, 25 mM HEPES pH 7.0, 37°C; read-out: Substrate(s) (fixed cosubstrate concn)^a. An excerpt: (§1) galactose phosphorylation, HPLC-RI on Galactokinase

Substrate in the data set “isomerization, HPAEC-PAD”: O=P(O)(O)O[C@H]1O[C@H](CO)[C@@H](O)[C@H](O)[C@H]1O
In words: isomerization, HPAEC-PAD. The class given is biochemical, Ruminiclostridium cellulolyticum. The following applies: 25 mM HEPES pH 7.0, 37°C. An excerpt: isomerization, HPAEC-PAD on α-Phosphoglucomutase

Substrate in data set [2]: Nc1nc2c(ncn2[C@@H]2O[C@H](COP(=O)(O)OP(=O)(O)OP(=O)(O)O)[C@@H](O)[C@H]2O)c(=O)[nH]1
In words: purified protein. The class given is biochemical, Ruminiclostridium cellulolyticum. As to conditions: 5 mM glucose, 25 mM MgCl2, 25 mM HEPES pH 7.0, 37°C. An excerpt: (§2) glucose phosphorylation, HPLC-RI on Hexokinase

Substrate in data set [3]: Nc1ncnc2c1ncn2[C@@H]1O[C@H](COP(=O)(O)OP(=O)(O)OP(=O)(O)O)[C@@H](O)[C@H]1O
In words: purified protein. The following applies: 5 mM glucose, 25 mM MgCl2, 25 mM HEPES pH 7.0, 37°C, ATP tested only up to 20 mM (below Km). The class given is biochemical, Ruminiclostridium cellulolyticum.
Source text: as §2

Substrate in data set [4]: Nc1nc2c(ncn2[C@@H]2O[C@H](COP(=O)(O)OP(=O)(O)OP(=O)(O)O)[C@@H](O)[C@H]2O)c(=O)[nH]1
In words: galactose phosphorylation, HPLC-RI. The class given is biochemical, Ruminiclostridium cellulolyticum. The following applies: 100 mM galactose, 25 mM MgCl2, 25 mM HEPES pH 7.0, 37°C.
Source text: as §1

Substrate in data set [5]: Nc1ncnc2c1ncn2[C@@H]1O[C@H](COP(=O)(O)OP(=O)(O)OP(=O)(O)O)[C@@H](O)[C@H]1O
In words: galactose phosphorylation, HPLC-RI. The class given is biochemical, Ruminiclostridium cellulolyticum. As to conditions: 100 mM galactose, 25 mM MgCl2, 25 mM HEPES pH 7.0, 37°C.
Source text: as §1

Substrate in the data set “isomerization, HPLC-RI”: O=C(CO)[C@@H](O)[C@H](O)CO
In words: isomerization, HPLC-RI. The class given is biochemical, Ruminiclostridium cellulolyticum. The following applies: 10 mM MgCl2, 25 mM HEPES pH 7.0, 37°C. An excerpt: isomerization, HPLC-RI on Xylose isomerase

Consider `OC[C@H]1OC(O)[C@H](O)[C@@H](O)[C@@H]1O` (stereo partly shown) [Glucose], for which the results for the Ki (in data set [1]; at β-Glucosidase Glu3A; at α-Xylosidase Xyl31A) were 0.68 ± 0.04 mM, 3.99 ± 0.33 mM and 1.83 ± 0.42 mM, respectively.

Consider `OC[C@H]1O[C@@H](O[C@H]2[C@H](O)[C@@H](O)C(O)O[C@@H]2CO)[C@H](O)[C@@H](O)[C@@H]1O` (stereo partly shown) [Cellobiose], for which the values for the Ki on β-Galactosidase Gal42A (noncompetitive) and on β-Glucosidase Glu3A were 19.3 ± 1.41 mM and 36.3 ± 5.57 mM, respectively.

As for `OC[C@H]1OC(O)[C@H](O)[C@@H](O)[C@H]1O` (stereo partly shown) [Galactose], the Km on Galactokinase came out at 15.5 ± 1.8 mM. Further, the Ki on β-Galactosidase Gal42A (competitive) stood at 2.35 ± 0.05 mM.

B1: α-Phosphoglucomutase (Ruminiclostridium cellulolyticum H10) (protein)
chain: MEYLSKLNFWLDNEYFDQDTKNELLSIKNNAKEVEDRFYKSLEFGTGGLRGIIGAGTNRINIYTVRVASQGLANYINQMGKQDKGIVIAYDPRFMSPEFSLEAAKVFCANGIKAYLFDELRPTPQLSFAVRYLKAAAGVVVTASHNPKQYNGYKVYGEDGGQLSIDGSNAVISEINKITDITKVNIISKEDAASKGLLQIIGSEIDDAYIEMLKKLRINKDAVSKVADTFKIVYTPLHGAGNKPVRRILAESGFKEVLVVKEQELPDSQFSTVKSPNPEERSAFELAIKLASDNNVDLIIGTDPDSDRVGVVVRKNDGEYAVLTGNQTGCLLLEYILTAMKEEGKLPANGFVVKTIVTTELARIIADFYNVELVEVLTGFKFIGEQIKLRDENGNQKYLFGFEESYGYLAGTDVRDKDAVVASMLVAEMAAYYKVKGISLYDALTNLYEKYGYFVEGISSFTLEGKDGVMKIKEALTTMRKTKYESFGGIKVKAIRDYQKSERHVIASGATEKITLPESDVLYFEMEDGSWFCVRPSGTEPKIKIYYGVSDRTLNLSQDKLEKFKAGVLDVIKPLL
notes: C-terminal 6xHis tag (pET28a-1417), E. coli BL21(DE3)
In the case of B1, in the data set “isomerization, HPAEC-PAD”, the Km stood at 0.155 ± 0.055 mM and the kcat is recorded as 1,768 ± 19 IU μmol^−1.

B2: Hexokinase (Ruminiclostridium cellulolyticum H10) (protein)
chain: MGSKLEIVQDVINAFEVNKESMLRTAMLFKETMEKSLNGEKTCLKMLPSYIGKPTGKEQGTFMTIDMGGTNFRCTKYKINNGNFEKVGEIKQKLINKEKNYDLTKSDSDEKQLFGFMAECIGELLEPEESLYLGNTFSFPCRQEGINDAYLIQWTKEITTSGVVGQNINKLLEQSLKEKNINVKPVAILNDTVGTLLVAMYSYQTADIGSIMGTGHNTCYLENNHPLNGQKMIVNIESGNYNVGLPVTKYDEIIDKNSQIPGAQLLEKMVSGYYMGSLLKEVCKDLYKNNALFTNEDVDIDAFFNQNFNALMVENFILYPSNTKEQYKCSIEDAEIVKRVSEAILKRTVRLVAVSHMGILFHQENSGTSVNNEHVIAIDGTIYEKMPNAPQLMKEAFREALGDDASNIEIRLVKDGSGLGAAIAAAFAVTQ
notes: C-terminal 6xHis tag (pET28a-3221), E. coli BL21(DE3)
B2: the Km in “purified protein [2]” is 0.40 ± 0.07 mM; in “purified protein [3]”, 32.2 ± 7.4 mM. Besides, the values for the kcat in the data set “purified protein [2]” and in the data set “purified protein [3]” were 11,160 ± 543 IU μmol^−1 and 8,781 ± 1,418 IU μmol^−1, respectively.

B3: Galactokinase (Ruminiclostridium cellulolyticum H10) (protein)
chain: T5 sequence (B8I0X2 1-397)
notes: C-terminal 6xHis tag (pET28a-3238), E. coli BL21(DE3)
With B3, in data set [4], the Km is 0.99 ± 0.13 mM and the kcat was 1,704 ± 75 IU μmol^−1. Besides, in data set [5], the Km is given as 13.71 ± 2.42 mM and the kcat is 4,853 ± 419 IU μmol^−1.

B4: Xylose isomerase (Ruminiclostridium cellulolyticum H10) (protein)
chain: MSEVFSGISNIKFEGSGSDNPLAFKYYDPKAVIGGKTMEEHLRFAVAYWHTFAAPGADMFGAGSYVRPWNTMSDPLEIAKYKVEANFEFIEKLGAPFFAFHDRDIAPEGDTLAETNKNLDTIVSVIKDRMKSSPVKLLWGTTNAFGNPRFMHGASTSPNADIFAYAAAQVKKAMEITKELGGENYVFWGGREGYETLLNTDMKLELDNLARFLKMAVDYAKEIGFDGQFLIEPKPKEPTKHQYDFDTATVIGFLKTYGLDPYFKMNIEANHATLAGHTFQHELAMCRINDMLGSIDANQGDVMLGWDTDQFPTNLYDATLAMVEVLKAGGLKKGGLNFDSKVRRGSFEPSDLFYGHIAGMDTFAKGLIIANKIVEDGKFDAFVADRYSSYTNGIGKDIVEGKVGFKELEQYALTAKIQNKSGRQEMLEALLNQYILETK
notes: C-terminal 6xHis tag (plasmid printed as pET28a-3439), E. coli BL21(DE3)
In the case of B4, in “isomerization, HPLC-RI”, the Km is 2.0 ± 0.2 mM and the kcat was determined as 63.5 ± 1.8 IU μmol^−1.
